Measurements reported in the supplement of paper PMC12338614.
± gives the uncertainty stated by the source.

B1: library; numbered along this chain (parent)
chain: MEVVDPQQLGMFTEGELMSVGMDTFIHRIDSTEVIYQPRRKRAKLIGKYLMGDLLGEGSYGKVKEVLDSETLCRRAVKILKKKKLRRIPNGEANVKKEIQLLRRLRHKNVIQLVDVLYNEEKQKMYMVMEYCVCGMQEMLDSVPEKRFPVCQAHGYFCQLIDGLEYLHSQGIVHKDIKPGNLLLTTGGTLKISDLGVAEALHPFAADDTCRTSQGSPAFQPPEIANGLDTFSGFKVDIWSAGVTLYNITTGLYPFEGDNIYKLFENIGKGSYAIPGDCGPPLSDLLKGMLEYEPAKRFSIRQIRQHSWFRKKHPPAEAPVPIPPSPDTKDRWRSMTVVPYLEDLHGADEDEDLFDIEDDIIYTQDFTVPGQVPEEEASHNGQRRGLPKAVCMNGTEAAQLSTKSRAEGRAPNPARKACSASSKIRRLSACKQQ

Variants of: B1
Experiment: STK11 functional score (HeLa growth suppression), rescaled enrichment; synonymous median = 1, nonsense median = 0 (normalised score)
Settings: with HeLa; variant type: missense
How it was run: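 HeLa cells carrying an AAVS1 landing pad received codon-optimised STK11 libraries made by codon randomisation (POPCode), integrated by Bxb1, with three regions each transfected three times. Integrants that were BFP-negative and mCherry-positive were sorted by FACS 4–5 days after electroporation and then grown for about two weeks. Tiled amplicons from gDNA were sequenced on NextSeq at ~2 million reads per tile. The functional score is a wild-type-corrected log ratio of post- to pre-selection counts, rescaled to the synonymous and nonsense medians, merged across codons and replicate transfections, and given a bootstrapped error.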

| Variant | STK11 functional score |
| --- | --- |
| I29G | 1.16 ± 0.8 |
| I29W | 1.63 ± 0.21 |
| A295W | 1.36 ± 0.2 |
| Q382K | 1.11 ± 0.44 |
| A397M | 1.62 ± 0.2 |
| A397G | 1.14 ± 0.17 |
| G276P | 1.22 ± 0.22 |
| T395N | 1.4 ± 0.21 |
| T395W | 1.61 ± 0.26 |
| G385H | 1.56 ± 0.25 |
| I161S | -0.0934 ± 0.18 |
| K44I | 1.16 ± 0.26 |
| Y166S | 0.964 ± 0.3 |
| Y166V | 1.14 ± 0.22 |
| I424S | 1.37 ± 0.2 |
| C132A | 1.47 ± 0.32 |
| C132L | 0.813 ± 0.2 |
| C132R | -0.197 ± 0.084 |
| T230A | 0.88 ± 0.11 |
| T230L | 0.829 ± 0.16 |
| L67V | 0.884 ± 0.11 |
| L67H | 0.361 ± 0.41 |
| Y126H | 0.681 ± 0.86 |
| Y126A | 1.21 ± 0.25 |

| Variant | STK11 functional score |
| --- | --- |
| Y126M | 0.654 ± 0.64 |
| Y126G | 0.669 ± 0.13 |
| N412S | 1.48 ± 0.23 |
| N412D | 1.53 ± 0.32 |
| N412G | 1.63 ± 0.15 |
| K82F | 0.966 ± 0.26 |
| K82C | 1.23 ± 0.15 |
| L201W | 0.55 ± 0.12 |
| V3M | 0.72 ± 0.44 |
| A406K | 1.28 ± 0.46 |
| A406G | 1.33 ± 0.31 |
| A406H | 1.6 ± 0.25 |
| A406F | 1.4 ± 0.3 |
| H27W | 0.807 ± 0.27 |
| H27S | 0.805 ± 0.23 |
| T189P | 1.12 ± 0.41 |
| E376Q | 0.896 ± 0.46 |
| K235N | 0.877 ± 0.28 |
| L285R | -0.201 ± 0.1 |
| L285I | 0.951 ± 0.32 |
| I79M | 0.465 ± 0.1 |
| R405G | 1.48 ± 0.22 |
| F231G | 1.17 ± 0.26 |
| G279A | 0.991 ± 0.39 |

| Variant | STK11 functional score |
| --- | --- |
| G279R | 0.829 ± 0.35 |
| G163L | 0.386 ± 0.3 |
| R40T | 1.68 ± 0.32 |
| R40L | 0.804 ± 0.16 |
| R310I | 1.59 ± 0.16 |
| E199H | 1.39 ± 0.18 |
| R211I | 0.844 ± 0.4 |
| K329E | 1.32 ± 0.077 |
| K329Q | 1.1 ± 0.39 |
| R74F | 0.896 ± 0.37 |
| R86G | 1.3 ± 0.46 |
| R86D | 1.68 ± 0.19 |
| M51A | 1.45 ± 0.6 |
| L195R | 0.0408 ± 0.11 |
| Y246C | 0.451 ± 0.12 |
| K81A | 1.66 ± 0.18 |
| G215H | 0.951 ± 0.64 |
| H202G | 1.3 ± 0.16 |
| M22W | 0.633 ± 0.55 |
| M22Y | 1.57 ± 0.096 |
| K122M | 1.25 ± 0.6 |
| K122Q | 0.235 ± 0.48 |
| K122T | 1.61 ± 0.44 |
| K122E | 0.911 ± 0.6 |

| Variant | STK11 functional score |
| --- | --- |
| K122L | 1.43 ± 0.26 |
| K122N | 1.51 ± 0.3 |
| F219V | 0.825 ± 0.13 |
| C151S | 1.13 ± 0.38 |
| C151E | 0.756 ± 0.29 |
| C151Q | 1.54 ± 0.39 |
| R75F | 1.08 ± 0.19 |
| R75K | 1.51 ± 0.44 |
| E342A | 1.11 ± 0.29 |
| R106M | 1.59 ± 0.17 |
| L113S | 0.517 ± 0.11 |
| G135K | 1.63 ± 0.18 |
| G135R | 1.38 ± 0.38 |
| G135Y | 1.32 ± 0.09 |
| L353N | 1.56 ± 0.21 |
| L400A | 1.64 ± 0.3 |
| Y118T | 1.61 ± 0.14 |
| P254L | 0.528 ± 0.12 |
| P254F | 0.445 ± 0.29 |
| P254T | 0.929 ± 0.1 |
| T402F | 1.18 ± 0.12 |
| K287A | 0.932 ± 0.14 |
| K287D | 1.27 ± 0.18 |
| E291N | 0.978 ± 0.52 |

| Variant | STK11 functional score |
| --- | --- |
| V338T | 1.6 ± 0.14 |
| K78D | -0.161 ± 0.078 |
| V368S | 1.1 ± 0.19 |
| V368A | 1.36 ± 0.22 |
| A398Y | 1.23 ± 0.29 |
| A398M | 1.63 ± 0.18 |
| Q214Y | 1.19 ± 0.31 |
| Q159W | 0.972 ± 0.42 |
| Q159V | 0.324 ± 0.074 |
| Q159M | 1.14 ± 0.096 |
| L263W | -0.0482 ± 0.1 |
| L263V | 0.76 ± 0.22 |
| L263Q | 0.281 ± 0.62 |
| Y36G | 1.55 ± 0.11 |
| L45T | 1.27 ± 0.78 |
| N109Q | 0.886 ± 0.081 |
| V63R | -0.0566 ± 0.15 |
| I46H | 1.58 ± 0.33 |
| I46R | 0.979 ± 0.36 |
| I46P | 0.555 ± 0.13 |
| M136N | -0.15 ± 0.087 |
| K403H | 1.53 ± 0.17 |
| K403W | 1.54 ± 0.27 |
| N247G | 0.808 ± 0.097 |

| Variant | STK11 functional score |
| --- | --- |
| Q364G | 0.7 ± 0.2 |
| Q364F | 1.28 ± 0.27 |
| E374Y | 1.29 ± 0.38 |
| L290C | 1.06 ± 0.3 |
| D355G | 1.63 ± 0.25 |
| D355P | 1.53 ± 0.2 |
| D355L | 1.58 ± 0.14 |
| P413G | 1.56 ± 0.22 |
| A200R | 0.878 ± 0.12 |
| A200L | 0.6 ± 0.26 |
| A200Y | 1.29 ± 0.38 |
| A410S | 1.4 ± 0.26 |
| G268M | 0.465 ± 0.33 |
| G15V | 1.1 ± 0.24 |
| L117R | 1.15 ± 0.13 |
| G270P | 1.43 ± 0.19 |
| K312M | 1.45 ± 0.19 |
| V390R | 1.4 ± 0.26 |
| E98M | 0.133 ± 0.46 |
| E98V | 0.117 ± 0.083 |
| E98L | 0.433 ± 0.22 |
| E138A | 1.09 ± 0.15 |
| M127N | 1.63 ± 0.19 |
| G394N | 0.969 ± 0.76 |

| Variant | STK11 functional score |
| --- | --- |
| K64L | 1.54 ± 0.26 |
| K64Q | 1.58 ± 0.26 |
| K64T | 1.08 ± 0.1 |
| E293F | 1.07 ± 0.11 |
| A225T | 1.65 ± 0.34 |
| R415L | 1.61 ± 0.12 |
| R415S | 1.5 ± 0.27 |
| S19W | 1.43 ± 0.4 |
| S19G | 1.64 ± 0.2 |
| S19H | 0.00479 ± 0.13 |
| E223V | 0.469 ± 0.15 |
| N393F | 1.52 ± 0.31 |
| N393K | 0.96 ± 0.51 |
| L344G | 0.8 ± 0.41 |
| R103E | 1.68 ± 0.18 |
| A43R | 1.64 ± 0.26 |
| A43W | 1.06 ± 0.11 |
| K97S | 0.724 ± 0.17 |
| K97C | 0.937 ± 0.18 |
| D352Q | 0.828 ± 0.15 |
| D352V | 1.12 ± 0.24 |
| R426L | 1.4 ± 0.16 |
| R426G | 1.1 ± 0.26 |
